Measurements as given in PMC2875157 (Nature, 2010).

B1: GST-eIF5^CTD (domain or fragment)
chain: VNSELTQLDEYGEWILEQAGEDKENLPSDVELYKKAAELDVLNDPKIGCVLAQCLFDEDIVNEIAEHNAFFTKILVTPEYEKNFMGGIERFLGLEHKDLIPLLPKILVQLYNNDIISEEEIMRFGTKSSKKFVPKEVSKKVRRAAKPFITWLETAESDDDEEDDE
B2: GST-eIF5^W391F (natural protein)
chain: MSINICRDNHDPFYRYKMPPIQAKVEGRGNGIKTAVLNVADISHALNRPAPYIVKYFGFELGAQTSISVDKDRYLVNGVHEPAKLQDVLDGFINKFVLCGSCKNPETEIIITKDNDLVRDCKACGKRTPMDLRHKLSSFILKNPPDSVSGSKKKKKAATASANVRGGGLSISDIAQGKSQNAPSDGTGSSTPQHHDEDEDELSRQIKAAASTLEDIEVKDDEWAVDMSEEAIRARAKELEVNSELTQLDEYGEWILEQAGEDKENLPSDVELYKKAAELDVLNDPKIGCVLAQCLFDEDIVNEIAEHNAFFTKILVTPEYEKNFMGGIERFLGLEHKDLIPLLPKILVQLYNNDIISEEEIMRFGTKSSKKFVPKEVSKKVRRAAKPFITFLETAESDDDEEDDE
B3: GST-eIF5^LR+CTD (domain or fragment)
chain: KKKKAATASANVRGGGLSISDIAQGKSQNAPSDGTGSSTPQHHDEDEDELSRQIKAAASTLEDIEVKDDEWAVDMSEEAIRARAKELEVNSELTQLDEYGEWILEQAGEDKENLPSDVELYKKAAELDVLNDPKIGCVLAQCLFDEDIVNEIAEHNAFFTKILVTPEYEKNFMGGIERFLGLEHKDLIPLLPKILVQLYNNDIISEEEIMRFGTKSSKKFVPKEVSKKVRRAAKPFITWLETAESDDDEEDDE

Molecular target: Yeast eIF2αβγ complex, purified (his-tagged eIF2γ) (yeast, UniProt P20459;P09064;P32481)
Sequence (P20459 whole entry, chain 1 of 3): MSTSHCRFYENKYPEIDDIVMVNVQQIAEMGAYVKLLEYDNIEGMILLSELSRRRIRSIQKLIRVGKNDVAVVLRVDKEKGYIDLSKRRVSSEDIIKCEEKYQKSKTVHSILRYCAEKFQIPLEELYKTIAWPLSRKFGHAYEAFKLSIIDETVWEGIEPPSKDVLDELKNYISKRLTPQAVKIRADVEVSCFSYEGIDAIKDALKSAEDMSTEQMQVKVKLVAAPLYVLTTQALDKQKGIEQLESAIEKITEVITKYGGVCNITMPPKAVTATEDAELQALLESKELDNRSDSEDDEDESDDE
Sequence (P09064 whole entry, chain 2 of 3): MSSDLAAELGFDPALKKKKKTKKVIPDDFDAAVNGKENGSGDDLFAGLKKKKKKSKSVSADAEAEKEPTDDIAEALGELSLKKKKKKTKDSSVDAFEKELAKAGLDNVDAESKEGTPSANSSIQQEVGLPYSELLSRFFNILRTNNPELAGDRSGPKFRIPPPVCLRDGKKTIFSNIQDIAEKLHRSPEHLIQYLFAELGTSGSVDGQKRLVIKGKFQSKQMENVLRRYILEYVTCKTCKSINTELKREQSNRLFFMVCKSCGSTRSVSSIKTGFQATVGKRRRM
Sequence (P32481 whole entry, chain 3 of 3): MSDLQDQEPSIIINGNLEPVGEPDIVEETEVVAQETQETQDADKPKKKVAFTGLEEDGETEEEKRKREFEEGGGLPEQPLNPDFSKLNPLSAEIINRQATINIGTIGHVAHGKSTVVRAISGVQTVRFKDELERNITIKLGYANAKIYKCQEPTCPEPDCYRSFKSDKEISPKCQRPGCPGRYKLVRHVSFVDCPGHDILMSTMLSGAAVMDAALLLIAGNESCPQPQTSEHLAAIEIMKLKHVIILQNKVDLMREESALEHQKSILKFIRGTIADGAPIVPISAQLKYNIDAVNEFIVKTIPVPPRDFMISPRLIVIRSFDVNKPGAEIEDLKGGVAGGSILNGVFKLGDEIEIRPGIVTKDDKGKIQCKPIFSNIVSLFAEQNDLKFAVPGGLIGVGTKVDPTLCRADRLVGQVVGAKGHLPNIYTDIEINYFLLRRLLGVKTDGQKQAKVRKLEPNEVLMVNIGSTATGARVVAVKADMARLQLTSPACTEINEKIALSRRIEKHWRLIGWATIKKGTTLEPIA
Experiment: pull-down

Binding result, binds:
B1, B2, B3
